From PMC2500142

Biological target: GFP-actin (UniProt P60709)
Assay: dual color fluorescence cross-correlation spectroscopy

Substance: DsRed-AQP2 (from UniProt P41181 1-271) (natural protein)
- relative cross-correlation amplitude ([Gc(0)-1]/[Gr(0)-1]), apical membrane: 0.33
- relative cross-correlation amplitude ([Gc(0)-1]/[Gr(0)-1]), subapical region: 0.4
